Measurements reported in patent US20140286957A1 (Teva, published 2014).

Legend:
mCD1dhu = target: T1, mCD1dhu (mouse with human segments); test: direct ELISA, plate coated with 1 µg/mL CD1d construct, HRP anti-human IgG (H+L) detection
T1 chain: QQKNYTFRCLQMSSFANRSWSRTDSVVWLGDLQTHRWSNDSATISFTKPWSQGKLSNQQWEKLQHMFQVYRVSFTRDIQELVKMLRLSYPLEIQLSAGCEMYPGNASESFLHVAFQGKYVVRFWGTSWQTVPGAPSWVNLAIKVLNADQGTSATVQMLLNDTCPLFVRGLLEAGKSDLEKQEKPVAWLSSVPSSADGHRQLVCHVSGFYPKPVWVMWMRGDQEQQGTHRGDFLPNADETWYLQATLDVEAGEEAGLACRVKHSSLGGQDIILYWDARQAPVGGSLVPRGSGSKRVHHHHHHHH

hCD1dmu = target: T2, hCD1dmu (human with mouse segments); test: as above
T2 chain: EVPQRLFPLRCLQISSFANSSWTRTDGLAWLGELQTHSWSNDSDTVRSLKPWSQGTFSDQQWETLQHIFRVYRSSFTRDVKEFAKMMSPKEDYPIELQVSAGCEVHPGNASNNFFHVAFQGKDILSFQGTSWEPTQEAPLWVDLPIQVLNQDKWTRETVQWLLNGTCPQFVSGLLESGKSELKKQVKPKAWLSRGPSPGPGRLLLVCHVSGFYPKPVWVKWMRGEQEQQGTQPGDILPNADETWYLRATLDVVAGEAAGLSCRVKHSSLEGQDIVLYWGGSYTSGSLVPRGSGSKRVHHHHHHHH

Mouse CD1d = target: T3, Mouse CD1d (mouse, UniProt P11609 22-305); test: as above
T3 construct: Murine CD1d extracellular domain construct, HEK-293E; also called mCD1d; murine CD1d
T3 sequence: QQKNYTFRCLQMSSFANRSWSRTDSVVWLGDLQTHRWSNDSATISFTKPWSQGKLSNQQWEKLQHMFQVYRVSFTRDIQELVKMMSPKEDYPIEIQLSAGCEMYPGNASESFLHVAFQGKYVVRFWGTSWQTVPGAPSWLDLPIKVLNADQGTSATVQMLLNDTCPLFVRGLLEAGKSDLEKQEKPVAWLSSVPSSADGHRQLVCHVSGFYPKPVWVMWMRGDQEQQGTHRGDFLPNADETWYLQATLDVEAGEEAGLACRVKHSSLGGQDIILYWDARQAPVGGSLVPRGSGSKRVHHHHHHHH

Human CD1d/β2M [1] = target: T4, Human CD1d/β2M (human, UniProt P15813 20-301; P61769 21-119); test: as above
T4 construct: also called hCD1d; recombinant human CD1d

Human CD1d/β2M [2] = target: T4, Human CD1d/β2M; test: SPR, IgG captured, CD1d/β2M analyte
Description: Purified antibodies were also subjected to full kinetic characterization using a BIACORE™ T100 biosensor (GE Healthcare). Approximately 10,000 RU of anti-human IgG (Invitrogen cat# H10500) was immobilized on a CM5 Series S Sensor chip, using standard amine coupling chemistry in flow cell (FC) 1 and FC2 (or alternatively FC3 and FC4) of the BIACORE™ T100 Biosensor. The running buffer used was HBS-EP-1-(GE Healthcare) and interactions measured at 25° C. Peak purified IgGs were diluted to 10 nM in running buffer, and captured on FC2 (or alternatively FC4) at a flow rate of 10 μL/min in order to capture 50-80 RU of IgG. […] The contact time for association was 120 sec and dissociation measured for 20 mins for the highest concentration and 240 sec for all other concentrations in the series. The sensorgram data from FC2 was subtracted from FC1 and a buffer only control.

[3] = target: Cynomolgus macaque CD1d on cells (cynomolgus macaque); test: flow cytometry, biotinylated antibody and streptavidin-PE on cynomolgus PBMC, gated live cells
[4] = target: T5, CD1d tetramer loaded with α-GalCer (ProImmune) (UniProt P15813 20-301, limits assumed); test: flow cytometry, inhibition of CD1d tetramer (10 nM) binding to NKTCR on J.RT3-T3.5 cells
T5 construct: Bought reagent; also called fluorochrome-conjugated CD1d tetramer
T5 sequence (looked up): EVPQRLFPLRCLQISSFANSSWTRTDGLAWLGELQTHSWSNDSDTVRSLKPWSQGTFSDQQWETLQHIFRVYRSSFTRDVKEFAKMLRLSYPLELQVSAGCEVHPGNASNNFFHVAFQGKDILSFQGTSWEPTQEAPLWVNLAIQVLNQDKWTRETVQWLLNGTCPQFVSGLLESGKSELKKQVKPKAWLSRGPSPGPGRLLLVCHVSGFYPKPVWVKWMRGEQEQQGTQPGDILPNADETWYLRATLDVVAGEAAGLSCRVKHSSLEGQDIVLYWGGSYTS
Description: To perform the assay, antibodies were prepared at decreasing concentrations from 10 μg/mL in 0.1% bovine serum albumin (BSA) in cold 1×PBS at pH 7.4. […] Wash steps were done in 0.1% BSA in 1×PBS. Data were acquired by flow cytometry and analyzed using flow cytometry analysis software (FlowJo® Treestar, Inc.).

Human CD1d/β2M [5] = target: T4, Human CD1d/β2M; test: SPR, Protein A purified IgG
Human CD1d on cells [6] = target: T6, Human CD1d on cells (human, UniProt P15813 20-335); test: cell-based or functional assay
T6 sequence (looked up): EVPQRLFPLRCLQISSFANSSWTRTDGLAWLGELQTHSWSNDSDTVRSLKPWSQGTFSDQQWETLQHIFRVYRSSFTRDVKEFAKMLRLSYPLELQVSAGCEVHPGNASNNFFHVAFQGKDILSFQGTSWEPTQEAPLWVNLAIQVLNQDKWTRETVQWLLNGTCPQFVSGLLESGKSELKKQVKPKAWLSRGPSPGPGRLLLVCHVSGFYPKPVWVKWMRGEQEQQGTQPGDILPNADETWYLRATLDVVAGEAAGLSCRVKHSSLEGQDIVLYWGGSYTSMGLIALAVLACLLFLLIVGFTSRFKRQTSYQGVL

Human CD1d on cells [7] = target: T6, Human CD1d on cells; test: cell-based or functional assay; remark: listed apart in the source
Human CD1d on cells [8] = target: T6, Human CD1d on cells; test: cell-based or functional assay; remark: listed apart in the source
Human CD1d on cells [9] = target: T6, Human CD1d on cells; test: cell-based or functional assay; remark: listed apart in the source
Human CD1d on cells [10] = target: T6, Human CD1d on cells; test: cell-based or functional assay; remark: listed apart in the source
Human CD1d on cells [11] = target: T6, Human CD1d on cells; test: cell-based or functional assay; remark: listed apart in the source

B1: 402.8 (antibody, V domains shown)
VH: QVQLQESGPGLVRPSETLSLTCAVYGGSFSGYYWSWIRQPPGKGLEWIGEINHSGSTNYNPSLKSRVTISVDTSKNQFSLKLSSVTAADTAVYYCARGEIYDFWNSYMDVWGKGTTVTVSS
VL: QTVVTQEPSLTVSPGGTVTLTCASSSGAVSSGNFPNWFQQKPGQAPRALIFSASNKHSWTPARFSGSLLGGKAVLTLSGVQPEDEAEYYCLLYFGDTQLGVFGGGTKVTVLG
notes: Human IgG4 (S228P); biotinylated or Pacific Blue labelled in some assays
mCD1dhu
  EC50 (read off the curve): ~5 ng/mL
hCD1dmu
  binding result: no binding (tested: 10 µg/mL)
Mouse CD1d
  binding result: no binding (tested: 10 µg/mL)
Human CD1d/β2M [1]
  EC50 (read off the curve): ~6 ng/mL
Human CD1d/β2M [2]
  Kd: 0.304 nM
  koff: 0.000161 s⁻¹
  kon: 530000 M⁻¹ s⁻¹
[3]
  percent CD1d-positive cells, Donor 1: 81.3%
  percent CD1d-positive cells, Donor 2: 64%
[4]
  EC50: 165 ng/mL
Human CD1d/β2M [5]
  Kd: 0.145 nM
Human CD1d on cells [6]
  NKT IFN-γ EC50 (moDC): 0.105 ng/mL
  NKT IL-13 EC50 (moDC): 0.154 ng/mL
Human CD1d on cells [7]
  IFN-γ EC50 (THP-1): 2.4 ng/mL
  IL-4 EC50 (THP-1): 1.7 ng/mL
  IL-5 EC50 (THP-1): 1.2 ng/mL
  IL-13 EC50 (THP-1): 1.5 ng/mL
Human CD1d on cells [8]
  fold potency against 51.1, IL-2 release: ~17 fold
  fold potency against antibody 42 (C24:1 βGluCer): ≤ 139 fold
  fold potency against antibody 42 (THP-1 assay): ≤ 180 fold
  fold potency against antibody 42 (moDC assay): ≤ 50 fold
  fold potency against antibody 42, IL-2 release: ~25 fold
  fold potency against antibody 51.1 (C24:1 βGluCer): ≤ 112 fold
Human CD1d on cells [9]
  IFN-γ EC50 (C24:1 βGluCer, moDC): 0.995 ng/mL
  IL-4 EC50 (C24:1 βGluCer, moDC): 0.636 ng/mL
  IL-5 EC50 (C24:1 βGluCer, moDC): 0.929 ng/mL
  IL-13 EC50 (C24:1 βGluCer, moDC): 2.94 ng/mL
  TNF-α EC50 (C24:1 βGluCer, moDC): 1.51 ng/mL
Human CD1d on cells [10]
  IL-2 release EC50 (U-937 + NKTCR cell line): 4.5 ng/mL
Human CD1d on cells [11]
  IFN-γ EC50 (primary CD14+ cells): 28.6 ng/mL
  IL-4 EC50 (primary CD14+ cells): 4 ng/mL
  IL-5 EC50 (primary CD14+ cells): 6.9 ng/mL
  IL-13 EC50 (primary CD14+ cells): 39.9 ng/mL
